In the experiment the target is Wild-type human γD-crystallin (human) (UniProt P07320).

Here are results for 1 substance from PMC3360035.

Sequence of Wild-type human γD-crystallin (human) (P07320 whole entry): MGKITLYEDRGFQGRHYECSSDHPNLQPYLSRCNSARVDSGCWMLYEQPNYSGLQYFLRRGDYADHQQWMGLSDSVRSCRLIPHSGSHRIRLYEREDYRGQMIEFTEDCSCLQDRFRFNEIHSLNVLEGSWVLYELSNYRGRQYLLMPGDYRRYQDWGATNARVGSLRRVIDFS

For the substance “αB-crystallin, wild type (from UniProt P02511 1-175) (natural protein)”, the suppression of aggregation on dilution out of 5 M GdnHCl (from maximum A350), αB in 5-fold molar excess came to 72%.
